Here are results for 15 variants from the RNAGym collection of RNA variant scans (doi:10.1093/molbev/msab373).

To fix the notation:
B1: Azoarcus group I ribozyme (parent)
chain: GUGCCUUGCGCCGGGAAACCACGCAAGGGAUGGUGUCAAAUUCGGCGAAACCUAAGCGCCCGCCCGGGCGUAUGGCAACGCCGAGCCAAGCUUCGGCGCCUGCGCCGAUGAAGGUGUAGAGACUAGACGGCACCCACCUAAGGCAAACGCUAUGGUGAAGGCAUAGUCCAGGGAGUGGCGAAAGUCACACAAACCGG

In this data set the parent is B1. Put plainly: reverse-splicing fitness (ratio to wild type); higher = more active; in vitro selection; Mg2+ level not given. The method in brief: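 An in vitro group I ribozyme library with randomized positions was T7-transcribed and gel-purified. In triplicate, 10 pmol RNA in EPPS pH 7.5 was reacted with 50 pmoles of a 30-nt RNA substrate for 1 h at 37 °C across several added MgCl2 levels (1–48 mM), then stopped with EDTA. Products were reverse transcribed from a substrate-complementary primer, PCR-amplified and sequenced (HiSeq 4000). Fitness is a variant's read proportion after selection over that before, normalised to wild type.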
GUGCCUUGCGCCGGGAAACCACGCAAGGGAUGGUGUCAAAUUCGGCGAAACCUAAGCGCCCGCCCGGGCGUAUGGCAACGCCGAGCCAAGCUUCGGCGCCUGCGCCGAUGCAGGUGUAGCGACUAGACGGCACCCACCUAAGGCAAACGUUAUGGUGAAGGCAUAGUCUAGGGAGAGGCGAAAGUCACACAAACCGG [A111C A120C C150U C169U U176A]: the reverse-splicing fitness is 0.0275.
As for GUGCCUUGCGCCGGGAAACCACGCAAGGGAUGGUGUCAAAUUCGGCGAAACCUAAGCGCCCGCCCGGGCGUAUGGCAACGCUGAGCCAAGCUUCGGCGCCUGCGCCGAUGGAGGUGUAGGGACUAGACGGCACCCACCUAAGGCUAACGGUAUGGUGAAGGCAUAGUCGAGGGAGAGGCGAAAGUCACACAAACCGG [C82U A111G A120G A145U C150G C169G U176A], the reverse-splicing fitness turned out to be 0.00667.
Regarding GUGCCUUGCGCCGGGAAACCACGCAAGGGAUGGUGUCAAAUUCGGCGAAACCUAAGCGCCCGCCCGGGCGUAUGGCAACGCCGAGCCAAGCUUCGGCGCCUGCGCCGAUGCAGGUGUAGCGACUAGACGGCACCCACCUAAGGCAAACGUUAUGGUGAAGGCAUAGUCAAGGGAGUGGCGAAAGUCACACAAACCGG [A111C A120C C150U C169A], the reverse-splicing fitness came to 0.0123.
In the case of GUGCCUUGCGCCGGGAAACCACGCAAGGGAUGGUGUCAAAUUCGGCGAAACCUAAGCGCCCGCCCGGGCGUAUGGCAACGCAGAGCCAAGCUUCGGCGCCUGCGCCGAUGCAGGUGUAGUGACUAGACGGCACCCACCUAAGGCGAACGAUAUGGUGAAGGCAUAGUCUAGGGAGUGGCGAAAGUCACACAAACCGG [C82A A111C A120U A145G C150A C169U], the reverse-splicing fitness was determined as 0.00559.
To GUGCCUUGCGCCGGGAAACCACGCAAGGGAUGGUGUCAAAUUCGGCGAAACCUAAGCGCCCGCCCGGGCGUAUGGCAACGCGGAGCCAAGCUUCGGCGCCUGCGCCGAUGAAGGUGUAGGGACUAGACGGCACCCACCUAAGGCAAACGAUAUGGUGAAGGCAUAGUCGAGGGAGGGGCGAAAGUCACACAAACCGG [C82G A120G C150A C169G U176G] belongs 0.00479; to GUGCCUUGCGCCGGGAAACCACGCAAGGGAUGGUGUCAAAUUCGGCGAAACCUAAGCGCCCGCCCGGGCGUAUGGCAACGCUGAGCCAAGCUUCGGCGCCUGCGCCGAUGAAGGUGUAGAGACUAGACGGCACCCACCUAAGGCAAACGGUAUGGUGAAGGCAUAGUCCAGGGAGAGGCGAAAGUCACACAAACCGG [C82U C150G U176A], 0.0283; to GUGCCUUGCGCCGGGAAACCACGCAAGGGAUGGUGUCAAAUUCGGCGAAACCUAAGCGCCCGCCCGGGCGUAUGGCAACGCCGAGCCAAGCUUCGGCGCCUGCGCCGAUGUAGGUGUAGGGACUAGACGGCACCCACCUAAGGCAAACGAUAUGGUGAAGGCAUAGUCGAGGGAGGGGCGAAAGUCACACAAACCGG [A111U A120G C150A C169G U176G], 0.00494.
For GUGCCUUGCGCCGGGAAACCACGCAAGGGAUGGUGUCAAAUUCGGCGAAACCUAAGCGCCCGCCCGGGCGUAUGGCAACGCGGAGCCAAGCUUCGGCGCCUGCGCCGAUGAAGGUGUAGCGACUAGACGGCACCCACCUAAGGCGAACGAUAUGGUGAAGGCAUAGUCAAGGGAGUGGCGAAAGUCACACAAACCGG [C82G A120C A145G C150A C169A], the reverse-splicing fitness was found to be 0.0104.
For the variant GUGCCUUGCGCCGGGAAACCACGCAAGGGAUGGUGUCAAAUUCGGCGAAACCUAAGCGCCCGCCCGGGCGUAUGGCAACGCUGAGCCAAGCUUCGGCGCCUGCGCCGAUGUAGGUGUAGGGACUAGACGGCACCCACCUAAGGCGAACGUUAUGGUGAAGGCAUAGUCAAGGGAGCGGCGAAAGUCACACAAACCGG [C82U A111U A120G A145G C150U C169A U176C], the reverse-splicing fitness came to 0.0123.
Consider GUGCCUUGCGCCGGGAAACCACGCAAGGGAUGGUGUCAAAUUCGGCGAAACCUAAGCGCCCGCCCGGGCGUAUGGCAACGCGGAGCCAAGCUUCGGCGCCUGCGCCGAUGGAGGUGUAGGGACUAGACGGCACCCACCUAAGGCCAACGCUAUGGUGAAGGCAUAGUCCAGGGAGAGGCGAAAGUCACACAAACCGG [C82G A111G A120G A145C U176A], for which the reverse-splicing fitness was found to be 0.0154.
With GUGCCUUGCGCCGGGAAACCACGCAAGGGAUGGUGUCAAAUUCGGCGAAACCUAAGCGCCCGCCCGGGCGUAUGGCAACGCCGAGCCAAGCUUCGGCGCCUGCGCCGAUGCAGGUGUAGUGACUAGACGGCACCCACCUAAGGCCAACGGUAUGGUGAAGGCAUAGUCCAGGGAGGGGCGAAAGUCACACAAACCGG [A111C A120U A145C C150G U176G] the figure was 0.00459.
For the variant GUGCCUUGCGCCGGGAAACCACGCAAGGGAUGGUGUCAAAUUCGGCGAAACCUAAGCGCCCGCCCGGGCGUAUGGCAACGCGGAGCCAAGCUUCGGCGCCUGCGCCGAUGUAGGUGUAGAGACUAGACGGCACCCACCUAAGGCUAACGAUAUGGUGAAGGCAUAGUCAAGGGAGUGGCGAAAGUCACACAAACCGG [C82G A111U A145U C150A C169A], the reverse-splicing fitness came to 0.0096.
In the case of GUGCCUUGCGCCGGGAAACCACGCAAGGGAUGGUGUCAAAUUCGGCGAAACCUAAGCGCCCGCCCGGGCGUAUGGCAACGCCGAGCCAAGCUUCGGCGCCUGCGCCGAUGAAGGUGUAGCGACUAGACGGCACCCACCUAAGGCGAACGUUAUGGUGAAGGCAUAGUCGAGGGAGUGGCGAAAGUCACACAAACCGG [A120C A145G C150U C169G], the reverse-splicing fitness was 0.0232.
With GUGCCUUGCGCCGGGAAACCACGCAAGGGAUGGUGUCAAAUUCGGCGAAACCUAAGCGCCCGCCCGGGCGUAUGGCAACGCGGAGCCAAGCUUCGGCGCCUGCGCCGAUGUAGGUGUAGGGACUAGACGGCACCCACCUAAGGCCAACGCUAUGGUGAAGGCAUAGUCGAGGGAGUGGCGAAAGUCACACAAACCGG [C82G A111U A120G A145C C169G], the reverse-splicing fitness worked out at 0.0125.
As to GUGCCUUGCGCCGGGAAACCACGCAAGGGAUGGUGUCAAAUUCGGCGAAACCUAAGCGCCCGCCCGGGCGUAUGGCAACGCCGAGCCAAGCUUCGGCGCCUGCGCCGAUGAAGGUGUAGUGACUAGACGGCACCCACCUAAGGCCAACGUUAUGGUGAAGGCAUAGUCGAGGGAGGGGCGAAAGUCACACAAACCGG [A120U A145C C150U C169G U176G], the reverse-splicing fitness was determined as 0.00233.
